Columns and labels:
[1] = test system: Wnt signaling (TOPflash) in shRNA-CK1α cells; assay: TOPflash in Jurkat cell line with inducible shRNA for CK1α; format: cell-based; conditions: pyrvinium 30 nM, Wnt3a-conditioned media
Procedure: (§1) FIGS. 3A-C. […] Phosphorylation of β-catenin on GSK3 sites (p33,37,41) and the priming CK1α site (p45) was detected by immunoblotting. […] Cells were treated with Wnt3a-conditioned media and lysates were assayed for TOPflash to assess Wnt signaling.
(§2) The inventors used a cell line with reduced CK1α levels due to inducible expression of shRNA against CK1α.

[2] = molecular target: GSK3 (Homo sapiens, UniProt P49841); assay: GSK3 kinase activity; format: biochemical; conditions: data not shown
Chain of GSK3 (P49841 whole entry): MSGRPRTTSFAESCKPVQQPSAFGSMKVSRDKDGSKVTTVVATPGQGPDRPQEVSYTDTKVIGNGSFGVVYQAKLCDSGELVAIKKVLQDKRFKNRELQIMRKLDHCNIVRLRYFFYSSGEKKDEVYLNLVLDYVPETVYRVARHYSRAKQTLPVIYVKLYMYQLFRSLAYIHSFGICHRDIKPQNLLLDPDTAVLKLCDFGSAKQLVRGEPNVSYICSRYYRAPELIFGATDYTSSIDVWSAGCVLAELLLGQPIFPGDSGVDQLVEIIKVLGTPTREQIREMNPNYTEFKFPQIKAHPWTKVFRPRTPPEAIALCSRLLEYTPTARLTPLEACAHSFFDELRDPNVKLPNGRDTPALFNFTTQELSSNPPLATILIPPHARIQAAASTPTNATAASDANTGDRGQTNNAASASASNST
Source text: as §2

[3] = molecular target: CK1α (Homo sapiens, UniProt P48729); assay: Binding and activation of purified recombinant kinases; format: biochemical
Chain of CK1α (P48729 whole entry): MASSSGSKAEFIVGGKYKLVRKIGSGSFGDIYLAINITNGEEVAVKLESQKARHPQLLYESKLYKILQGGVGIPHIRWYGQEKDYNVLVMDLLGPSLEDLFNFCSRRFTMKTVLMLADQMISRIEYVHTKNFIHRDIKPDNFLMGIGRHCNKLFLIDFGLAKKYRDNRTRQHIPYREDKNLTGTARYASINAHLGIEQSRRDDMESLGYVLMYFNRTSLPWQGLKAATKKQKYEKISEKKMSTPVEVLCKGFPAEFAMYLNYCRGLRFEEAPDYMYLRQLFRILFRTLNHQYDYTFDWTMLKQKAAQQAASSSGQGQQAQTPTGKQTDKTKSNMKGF

[4] = test system: Wnt signaling (TOPflash, TCF/Lef1 promoter luciferase); assay: TOPflash reporter assay in HEK 293 STF cells treated with Wnt3a-conditioned media; format: cell-based; conditions: 24 hours, read-out: IC50, inhibition of TOPflash activation (Wnt signaling)
Source text: Graph represents mean±s.e.m of TOPflash signal normalized to cell number (performed in quadruplicate). […] Data shown represent mean of four independent amplification reactions, graphed as relative expression to unstimulated cells. Expression levels were normalized to β-actin mRNA. Error bars, RQ values with 95% confidence.

[5] = molecular target: β-catenin degradation complex (Homo sapiens, UniProt P48729); assay: In vitro kinase reaction with purified GSK3, CK1α, Axin and β-catenin; format: biochemical; conditions: pyrvinium 10 nM, proteins 100 nM each
Chain of β-catenin degradation complex (P48729 whole entry, one chain of several): as the sequence (P48729 whole entry) above
Procedure: as §1, §2

[6] = test system: AXIN2 and c-MYC; assay: Real-time RT-PCR of endogenous Wnt target genes; format: cell-based; conditions: normalized to β-actin mRNA
[7] = test system: male C57Bl/6 mice with myocardial infarct; format: in vivo
Source text: FIGS. 5A-D. Mouse MI model. Representative mouse EKG tracings pre (FIG. 5A) and post (FIG. 5B) coronary artery ligation. […] Arrows mark lateral and posterior left ventricle (LV). LVIDD, LVIDS=LV internal diameter at systole and […], respectively. RV=right ventricle. […] Cardiac dimensions were obtained from 2-D guided M-mode images (100 frames/sec) and were read blinded using short axis and a parasternal long-axis views with the leading edge method. All echo measurements were averaged over 3 consecutive beats on unsedated mice at 7 and 30 days after infarction. Statistical significance assessed by the Wilcoxon rank sum test.
Myocardial infarcts were induced in male C57Bl/6 mice by coronary ligation (FIG. 5) as previously described (Alfaro et al., 2008).
Ventricular remodeling and cardiac functional parameters will be assessed by echo.
Mammalian cardiomyocytes irreversibly withdraw from the cell cycle soon after birth and undergo terminal differentiation. […] Therefore, cardiac injury causes permanent myocardial loss and cardiac dysfunction. […] Proliferation was assessed by immunostaining for Ki-67. […] Phosphorylation of histone 3 (pH3) on Ser 10 is an established cellular marker for chromosome condensation during mitotic prophase (van Amerongen and Engel, 2008).

[8] = test system: mice; assay: In vivo toxicity of mabLRP5/6; conditions: mouse
[9] = test system: Wnt3a-mediated Wnt signaling (LRP5/6); assay: Wnt3a-mediated activation of the Wnt pathway, TOPflash reporter cell line (antibody); format: cell-based
Procedure: FIGS. 11A-B. Wnt activated signaling. (FIG. 11A) Wnt3a activated signaling in 293 HEK cells. (FIG. 11B) Wnt signaling in SW480 colorectal cancer cell line with mutant APC.
The inventors examined effects of antibodies on Wnt signaling activated by recombinant Wnt3a, which was added to the media, and effects of antibodies on Wnt signaling in a colorectal cancer line (SW480) that has constitutively active Wnt signaling due to a mutation in the tumor suppressor, APC. […] This was unexpected because the APC mutation is downstream of the LRP6 receptor, to which the antibody is directed.

[10] = test system: male C57Bl/6 mice with myocardial infarct; assay: Acute myocardial infarct model, IV antibody, echocardiography; format: in vivo
Procedure: FIG. 9. Effect of low and high dose of mabLRP5/6 adminstered post infarct as compared to […] control. LVIDD and LVIDS to represent cardiac remodeling, and EF, ejection fraction, as a measurement of cardiac function, were determined by echocardiography and are plotted as percentage difference values (mean±SD) between 7 and 30 days after infarct.
The inventors initiated studies to determine the effectiveness of mMABLRP5/6 on repair and regeneration of injured myocardium using an mouse acute myocardial infarct model. Myocardial infarcts were induced in 8-week old male C57Bl/6 mice ([…]) by coronary ligation (FIG. 9) as previously described (Alfaro et al., 2008). At the time of infarction, the inventors administered 10 μg or 20 μg of mabLRP5/6 in 100 μl PBS or the same amount of IgM as control, intravenously by tail vein injection. The mice received a second dose of mabLRP5/6 or control antibody 72 hours after infarct to maintain at least 50% Wnt inhibition activity in the plasma through 7 days post infarct (data not shown). Ventricular remodeling and cardiac function were analyzed by echocardiography pre-infarct and at 7 and 30 days post MI. Ventricular function was reflected by ejection fraction (EF). LV internal dimension diastolic (LVIDD) and LV internal dimension systolic (LVIDS) reflected remodeling of the infarcted ventricle (FIG. 1). […] Additional numbers of animals as well as histologic myocardial analysis and high-resolution visual sonics studies are pending to determine infarct size and elucidate effects of mabLRP5/6 on endogenous cellular myocardial repair.

[11] = test system: Axin 2 and Cyclin D transcripts; assay: Real time RT-PCR of Wnt target genes in heart homogenates of treated mice; format: in vivo
Procedure: (§3) The canonical Wnt signaling pathway was assessed using luciferase activity in HEK cells stably transfected with TOPflash reporter. Cells were treated with recombinant Wnt 3a to activate Wnt signaling. […] Cycle thresholds for 18S mRNA transcripts were used to normalize between samples. n=4 mice analyzed at each time point for each cohort. Ki-67-positive cells in the heart (FIG. 8C) and pH3-positive mononucleated, differentiated cardiomyocytes in mabLRP5/6-treated remote myocardium (FIG. 8D).
(§4) To evaluate whether mabLRP5/6 inhibits Wnt-mediated transcription in vivo, the inventors injected 3 groups of mice IV with increasing amounts of mabLRP5/6 (2.3 μg, 4.7 μg or 9.4 μg, n=3 in each group) or control IgM. Mice were sacrificed after 48 hours and serum and tissue samples were obtained. […] Heart tissues from treated animals were homogenized and total RNA isolated for real time RT-PCR analysis (Young et al., 2005). […] The effect on Axin 2 transcript persisted at 72 hours after a single administration. To obtain evidence that mabLRP5/6 has cellular effects on post-MI myocardium, the inventors analyzed by immuno-histology paraffin-embedded sections from male mice treated with either IgM or mabLRP5/6 12 hours prior to induction of acute MI and then sacrificed 14 days later (n=1 for each condition). They identified >3-fold higher Ki-67^+ and pH3^+ cells in the remote LV from the mabLRP5/6-treated mouse compared to the control IgM-treated mouse (FIGS. 8C-D).

[12] = test system: Ki-67+ and pH3+ cells in remote LV; assay: Immunohistology of post-MI myocardium after antibody pretreatment; format: in vivo, mice; conditions: treated 12 hours prior to MI, 14 days, n=1
Procedure: as §3
as §4, with “They identified >3-fold higher Ki-67^+ and pH3^+ cells in the remote LV from the mabLRP5/6-treated mouse compared to the control IgM-treated mouse (FIGS. 8C-D).” left out

[13] = test system: β-catenin nuclear accumulation, RKO cells; assay: Wnt3a-induced nuclear accumulation of β-catenin in RKO cells; conditions: 300 pg/ml, 24 hours
Procedure: RKO cells were treated with Wnt3a in the presence or absence of 300 pg/ml mabLRP6 for 24 hours. Cells were fixed and immunostained for β-catenin (green). DAPI (blue) stains DNA.

[14] = test system: Wnt3a-mediated luciferase activity; assay: Plasma of IV-treated mice tested on TOPflash reporter HEK cells; format: in vivo; conditions: for Greater inhibition of Wnt3a-mediated luciferase activity by plasma compared to IgM controls: 9.4 μg, 100 μl plasma
Procedure: as §3, §4

Molecule: Cc1cc(/C=C/c2ccc3cc(N(C)C)ccc3[n+]2C)c(C)n1-c1ccccc1 [pyrvinium]
- Inhibition of TOPflash activity in shRNA-CK1α cells [1]: failed to inhibit
- GSK3 activity [2]: no observable effect
- Phosphorylation of Tau by CK1α ([3]; data not shown): enhanced
- Binding and activation of representative kinases ([3]; pyrvinium 10 nM): binding and activation of CK1α alone
- IC50 [4]: ~10 nM
- β-catenin phosphorylation (GSK3 and CK1α sites) [5]: dramatic increase
- Levels of endogenous Wnt target genes AXIN2 and c-MYC [6]: decreases
- Infarct size, comparison between the two cohorts ([7]; data not shown): did not reflect any statistically significant differences
- Numbers of Ki-67-positive cells in peri-infarct and remote myocardium, versus Cmpd 211 ([7]; mouse, in vivo): significantly higher
- Numbers of Ki-67-positive cells in the scar, versus Cmpd 211 ([7]; mouse, in vivo): similar
- Average difference in fractional shortening between days 7 and 30 ([7]; single 200 nM injection, p<0.05): 22.3+5.2
- Myocyte proliferation in sham-operated animals ([7]; single intramyocardial injection into LV apex, data not shown): did not induce myocyte proliferation

B1: mabLRP5/6: stable hybridoma line monoclonal antibody against LRP5/6 raised in BALB/c mice with human LRP6 fragments; inhibits Wnt signaling (antibody, V domains shown)
VH: QVQLKESGPGLVASSQSLSITCTVSGFSLSRYSVHWVRQPPGKGLEWLGMIWGGGSTDYNSALKSRLGISKDNSKSQVFLKMNSLQTDDTAMYYCAGTGSWFAYWGQGTLVTVSA
VL: DIQMTQSPASLSASVGETVTITCRASGNIHNYLAWYQQKQGKSPQLLVYNAKTLADGVPSRFSGSGSGTQYSLKINSLQPEDFGSYYCQHFWSTPWTFGGGTKLEIK
- In vivo toxicity [8]: minimal toxicity
- IC50, inhibition of Wnt signaling [9]: ~0.2 ng/mL
- Percentage difference in LVIDS between day 7 and day 30 ([10]; 20 μg compared with 10 μg dose or control IgM): reduced in a dose-dependent manner
- Decrease in ejection fraction (EF) between day 7 and day 30 ([10]; high dose): decreased less
- Percentage difference in LVIDD between day 7 and day 30 ([10]; high dose (20 μg IV at infarction and 72 hours)): 5.36±0.83 percentage
- Decrease in ejection fraction (EF) between day 7 and day 30 ([10]; low dose): ~6%
- Percentage difference in LVIDD between day 7 and day 30 ([10]; low dose (10 μg IV at infarction and 72 hours)): 6.23 ± 2.3 percentage
- Wnt inhibition activity in the plasma ([10]; second dose at 72 hours, through 7 days post infarct, data not shown): at least 50%
- Reduction in Axin 2 transcripts in heart compared to controls ([11]; 48 h): ~2 fold
- Reduction in Cyclin D transcripts in heart compared to controls ([11]; 48 h): ~2 fold
- Effect on Axin 2 transcript in heart ([11]; 72 hours after a single administration): persisted
- Ki-67+ cells in remote LV, higher than control IgM [12]: > 3 fold
- pH3+ cells in remote LV, higher than control IgM [12]: > 3 fold
- Wnt3a-induced nuclear accumulation of β-catenin [13]: blocked
- Wnt3a-induced nuclear accumulation of β-catenin ([13]; listed as mabLRP6): inhibits
- Greater inhibition of Wnt3a-mediated luciferase activity by plasma compared to IgM controls ([14]; 48 hours after administration): ~5 fold
- Greater inhibition of Wnt3a-mediated luciferase activity by plasma compared to IgM controls ([14]; 72 hours after administration): ~2 fold
- Wnt signaling in TOPflash reporter cell line treated with plasma ([14]; IV 4.7 and 9.4 μg, 50 μl plasma, 48 and 72 hours): inhibited Wnt signaling

Source: patent US9175090B2, “Methods of using an antibody to inhibit WNT-mediated signaling in cancer” (Vanderbilt University, priority 2011, dated 2015)
